# Measurements: US20260049138A1 (Chugai, published 2026)
# Target: T1, CD3ε homodimer protein (human, UniProt P07766 23-126, limits assumed, sulfo-tag or biotin label in the ECL assays; amine-coupled to the chip in SPR)
# T1 construct: also called human CD3ε homodimer protein; CD3 (CD3ε)
# Test: SPR Biacore T200; CD3ε homodimer on CM4 chip;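 further: Single-residue variant antibodies injected as analyte over CD3ε homodimer immobilized by amine coupling, run at 25 °C in HBS-EP+ buffer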
# T1 sequence (P07766 23-126 limits assumed): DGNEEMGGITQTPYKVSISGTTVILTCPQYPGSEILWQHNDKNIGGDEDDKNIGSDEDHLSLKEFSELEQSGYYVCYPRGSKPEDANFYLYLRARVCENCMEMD
row,Binder,ratio of amounts bound Z=Y/X (altered form / CE115HA000)
1,"CE115HA000 Y55G one-arm antibody (antibody, human IgG1, kappa, L234A L235A, N297A, name in Kabat numbering) heavy: QVQLVESGGGVVQPGRSLRLSCAASGFTFSNAWMHWVRQAPGKGLEWVAQIKAKSNNGATYYAESVKGRFTISRDDSKNSLYLQMNSLKTEDTAVYYCRYVHYGAYYGVDAWGQGTTVTVSSASTKGPSVFPLAPSSKSTSGGTAALGCLVKDYFPEPVTVSWNSGALTSGVHTFPAVLQSSGLYSLSSVVTVPSSSLGTQTYICNVNHKPSNTKVDKKVEPKSCDKTHTCPPCPAPEAAGGPSVFLFPPKPKDTLMISRTPEVTCVVVDVSHEDPEVKFNWYVDGVEVHNAKTKPREEQYASTYRVVSVLTVLHQDWLNGKEYKCKVSNKALPAPIEKTISKAKGQPREPQVYTLPPSRCELTKNQVSLSCAVKGFYPSDIAVEWESNGQPENNYKTTPPVLDSDGSFFLVSKLTVDKSRWQQGNVFSCSVMHEALHNHYTQKSLSLSPDYKDDDDK EPKSSDKTHTCPPCPAPELLGGPSVFLFPPKPKDTLMISRTPEVTCVVVDVSHEDPEVKFNWYVDGVEVHNAKTKPREEQYNSTYRVVSVLTVLHQDWLNGKEYKCKVSNKALPAPIEKTISKAKGQPREPQVCTLPPSRDELTKNQVSLWCLVKGFYPSDIAVEWESNGQPENNYKTTPPVLDSDGSFFLYSKLTVDKSRWQQGNVFSCSVMHEALHNRYTQKSLSLSP light: DIVMTQSPLSLPVTPGEPASISCRSSQSLVHSNRNTYLHWYQQKPGQAPRLLIYKVSNRFSGVPDRFSGSGSGTDFTLKISRVEAEDVGVYYCGQGTQVPYTFGQGTKLEIKRTVAAPSVFIFPPSDEQLKSGTASVVCLLNNFYPREAKVQWKVDNALQSGNSQESVTEQDSKDSTYSLSSTLTLSKADYEKHKVYACEVTHQGLSSPVTKSFNRGEC",0.65
2,"CE115HA000 Y58D one-arm antibody (antibody, human IgG1, kappa, L234A L235A, N297A, name in Kabat numbering) heavy: QVQLVESGGGVVQPGRSLRLSCAASGFTFSNAWMHWVRQAPGKGLEWVAQIKAKSNNYATDYAESVKGRFTISRDDSKNSLYLQMNSLKTEDTAVYYCRYVHYGAYYGVDAWGQGTTVTVSSASTKGPSVFPLAPSSKSTSGGTAALGCLVKDYFPEPVTVSWNSGALTSGVHTFPAVLQSSGLYSLSSVVTVPSSSLGTQTYICNVNHKPSNTKVDKKVEPKSCDKTHTCPPCPAPEAAGGPSVFLFPPKPKDTLMISRTPEVTCVVVDVSHEDPEVKFNWYVDGVEVHNAKTKPREEQYASTYRVVSVLTVLHQDWLNGKEYKCKVSNKALPAPIEKTISKAKGQPREPQVYTLPPSRCELTKNQVSLSCAVKGFYPSDIAVEWESNGQPENNYKTTPPVLDSDGSFFLVSKLTVDKSRWQQGNVFSCSVMHEALHNHYTQKSLSLSPDYKDDDDK EPKSSDKTHTCPPCPAPELLGGPSVFLFPPKPKDTLMISRTPEVTCVVVDVSHEDPEVKFNWYVDGVEVHNAKTKPREEQYNSTYRVVSVLTVLHQDWLNGKEYKCKVSNKALPAPIEKTISKAKGQPREPQVCTLPPSRDELTKNQVSLWCLVKGFYPSDIAVEWESNGQPENNYKTTPPVLDSDGSFFLYSKLTVDKSRWQQGNVFSCSVMHEALHNRYTQKSLSLSP light: DIVMTQSPLSLPVTPGEPASISCRSSQSLVHSNRNTYLHWYQQKPGQAPRLLIYKVSNRFSGVPDRFSGSGSGTDFTLKISRVEAEDVGVYYCGQGTQVPYTFGQGTKLEIKRTVAAPSVFIFPPSDEQLKSGTASVVCLLNNFYPREAKVQWKVDNALQSGNSQESVTEQDSKDSTYSLSSTLTLSKADYEKHKVYACEVTHQGLSSPVTKSFNRGEC",0.11
3,"CE115HA000 Y55S one-arm antibody (antibody, human IgG1, kappa, L234A L235A, N297A, name in Kabat numbering) heavy: QVQLVESGGGVVQPGRSLRLSCAASGFTFSNAWMHWVRQAPGKGLEWVAQIKAKSNNSATYYAESVKGRFTISRDDSKNSLYLQMNSLKTEDTAVYYCRYVHYGAYYGVDAWGQGTTVTVSSASTKGPSVFPLAPSSKSTSGGTAALGCLVKDYFPEPVTVSWNSGALTSGVHTFPAVLQSSGLYSLSSVVTVPSSSLGTQTYICNVNHKPSNTKVDKKVEPKSCDKTHTCPPCPAPEAAGGPSVFLFPPKPKDTLMISRTPEVTCVVVDVSHEDPEVKFNWYVDGVEVHNAKTKPREEQYASTYRVVSVLTVLHQDWLNGKEYKCKVSNKALPAPIEKTISKAKGQPREPQVYTLPPSRCELTKNQVSLSCAVKGFYPSDIAVEWESNGQPENNYKTTPPVLDSDGSFFLVSKLTVDKSRWQQGNVFSCSVMHEALHNHYTQKSLSLSPDYKDDDDK EPKSSDKTHTCPPCPAPELLGGPSVFLFPPKPKDTLMISRTPEVTCVVVDVSHEDPEVKFNWYVDGVEVHNAKTKPREEQYNSTYRVVSVLTVLHQDWLNGKEYKCKVSNKALPAPIEKTISKAKGQPREPQVCTLPPSRDELTKNQVSLWCLVKGFYPSDIAVEWESNGQPENNYKTTPPVLDSDGSFFLYSKLTVDKSRWQQGNVFSCSVMHEALHNRYTQKSLSLSP light: DIVMTQSPLSLPVTPGEPASISCRSSQSLVHSNRNTYLHWYQQKPGQAPRLLIYKVSNRFSGVPDRFSGSGSGTDFTLKISRVEAEDVGVYYCGQGTQVPYTFGQGTKLEIKRTVAAPSVFIFPPSDEQLKSGTASVVCLLNNFYPREAKVQWKVDNALQSGNSQESVTEQDSKDSTYSLSSTLTLSKADYEKHKVYACEVTHQGLSSPVTKSFNRGEC",0.26
4,"CE115HA000 Y58A one-arm antibody (antibody, human IgG1, kappa, L234A L235A, N297A, name in Kabat numbering) heavy: QVQLVESGGGVVQPGRSLRLSCAASGFTFSNAWMHWVRQAPGKGLEWVAQIKAKSNNYATAYAESVKGRFTISRDDSKNSLYLQMNSLKTEDTAVYYCRYVHYGAYYGVDAWGQGTTVTVSSASTKGPSVFPLAPSSKSTSGGTAALGCLVKDYFPEPVTVSWNSGALTSGVHTFPAVLQSSGLYSLSSVVTVPSSSLGTQTYICNVNHKPSNTKVDKKVEPKSCDKTHTCPPCPAPEAAGGPSVFLFPPKPKDTLMISRTPEVTCVVVDVSHEDPEVKFNWYVDGVEVHNAKTKPREEQYASTYRVVSVLTVLHQDWLNGKEYKCKVSNKALPAPIEKTISKAKGQPREPQVYTLPPSRCELTKNQVSLSCAVKGFYPSDIAVEWESNGQPENNYKTTPPVLDSDGSFFLVSKLTVDKSRWQQGNVFSCSVMHEALHNHYTQKSLSLSPDYKDDDDK EPKSSDKTHTCPPCPAPELLGGPSVFLFPPKPKDTLMISRTPEVTCVVVDVSHEDPEVKFNWYVDGVEVHNAKTKPREEQYNSTYRVVSVLTVLHQDWLNGKEYKCKVSNKALPAPIEKTISKAKGQPREPQVCTLPPSRDELTKNQVSLWCLVKGFYPSDIAVEWESNGQPENNYKTTPPVLDSDGSFFLYSKLTVDKSRWQQGNVFSCSVMHEALHNRYTQKSLSLSP light: DIVMTQSPLSLPVTPGEPASISCRSSQSLVHSNRNTYLHWYQQKPGQAPRLLIYKVSNRFSGVPDRFSGSGSGTDFTLKISRVEAEDVGVYYCGQGTQVPYTFGQGTKLEIKRTVAAPSVFIFPPSDEQLKSGTASVVCLLNNFYPREAKVQWKVDNALQSGNSQESVTEQDSKDSTYSLSSTLTLSKADYEKHKVYACEVTHQGLSSPVTKSFNRGEC",0.22
